Values quoted from earlier work as cited in publication PMC2953804.

Target: Mlh1 (Saccharomyces cerevisiae) (UniProt P38920)

Kd: 3.14 µM
Substance: Mlh1 (from UniProt P38920)
